Biological target: T1, FAM-αC-conotoxin PrXA (Conus parius, UniProt P0C8S5 52-83)
T1 chain: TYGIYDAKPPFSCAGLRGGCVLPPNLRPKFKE
Assay: fluorescence anisotropy; no anisotropy change
Conditions: tags: 5,6-carboxyfluorescein (FAM)

B1: S1 scramble (ssDNA)
DNA: GCCTGTTGTGAGCCTCCTGTCGAAGGGGATGGACCCCTACTTCATTCGCCCGCCTTGAGCGTTTATTCTTGTCTCCC
B1: no binding.
